Target: PCAF HAT domain (amino acids 493-658), His-tagged (human), Q92831
Experiment: SEC-MALS; protein at 2, 6 and 20 mg/ml on a size exclusion column (WTC-010S5); 50 mM phosphate buffer pH 7.0, 150 mM NaCl, 35°C; monomer to dimer
Settings: remark: other sources report otherwise

B1: PCAF HAT domain (amino acids 493-658), His-tagged, Q92831 493-658 (domain or fragment)
chain: VIEFHVVGNSLNQKPNKKILMWLVGLQNVFSHQLPRMPKEYITRLVFDPKHKTLALIKDGRVIGGICFRMFPSQGFTEIVFCAVTSNEQVKGYGTHLMNHLKEYHIKHDILNFLTYADEYAIGYFKKQGFSKEIKIPKTKYVGYIKDYEGATLMGCELNPRIPYTE
- stoichiometry N: 2

Source: article PMC3897949
